Paper PMC8251270 (2021)

Biological target: recombinant receptor‐binding motif (RBM) of SARS‐CoV‐2 spike (S) protein, residue 437–508 (SARS-CoV-2, UniProt P0DTC2 437-508)
Test: SPR

B1: mAb8 (antibody, V domains shown)
VH: DVKLVESGGGLVKLGGSLKLSCAASGFTFSTDYMSWVRQSPEKRLELVAAINSNGGTTYYPDTVKGRFIISRDNAKNTLYLQMSSLRSEDTALYYCARQVKNGLDYWGQGTSVTVSS
VL: DIQMTQTTSSLSASLGDRVTISCRASQDISNYLNWYQQKPDGTVKLLIYKTSRLHSGVPSRFRGSGSGTDYSLTISNLEEEDVATYFCQQGNTLPPTFGGGTKLEIK
In the case of B1, the Kd is reported as 0.0574 µM.
